Reference: patent US9084734B2, “Peptide personal care compositions and methods for their use” (Danisco US Inc., priority 2005, dated 2015)
One block for each molecule: values may come before it.

Columns and labels:
Human VEGF165 = molecular target: T1, Human VEGF165 (Homo sapiens, UniProt P15692); experiment: BIAcore binding analysis of BBI-VEGF; settings: refolded protein, trypsin and chymotrypsin coupled in remaining lanes
T1 construct: purchased Biosource
T1 sequence (P15692 27-191 isoform P15692-4): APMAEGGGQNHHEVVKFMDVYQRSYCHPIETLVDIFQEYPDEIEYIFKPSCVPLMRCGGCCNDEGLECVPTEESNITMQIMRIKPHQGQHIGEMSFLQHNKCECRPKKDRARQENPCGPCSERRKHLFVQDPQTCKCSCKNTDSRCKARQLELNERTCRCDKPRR
Procedure: In this Example, experiments conducted to determine the binding affinity of constructs produced as indicated in Example 9 are described. Affinities of BBI-VEGF constructs for VEGF were measured using BIAcore-3000 surface plasmon resonance (Biacore). A CM5 sensor chip was conditioned with 50 mM NaOH and activated for covalent coupling of VEGF using N-ethyl-N′-(3-dimethylaminopropyl)-carbodiimide hydrochloride (EDC) and N-hydroxysuccinimide (NHS) according to the supplier's instructions (Biacore). VEGF (human VEGF165, Biosource) was diluted to 5 μg/mL in 20 mM sodium acetate, pH 4.8, and injected at a flow rate of 2 μL/min to achieve approximately 1000 to 6000 response units (RU) of coupled protein. Trypsin and chymotrypsin were similarly coupled to the CM5 sensor chip to approximately 850 to 3500 RU in remaining lanes. A solution of 1M ethanolamine was injected as a blocking agent.

[1] = system: skin of individuals of skin type III and IV; experiment: Reduction of skin pigmentation induced by UVA exposure (MPPD), clinical tanning grade; type: in vivo, human; settings: for Day 13 Avg. Tanning Grade / Day 14 Avg. Tanning Grade / Day 15 Avg. Tanning Grade: 1.0 MPPD UVA daily on days 12-14, 0-10 scale; for Change on Day 13 (tanning grade minus day 12 grade) / Change on Day 14 (tanning grade minus day 12 grade) / Change on Day 15 (tanning grade minus day 12 grade): UVA-induced pigmentation; for Day 12 Avg. Tanning Grade: after 11 days of patches, before UVA exposure, 0-10 scale
Procedure: In this Example, experiments conducted to test the ability of BBI-AV to reduce skin pigmentation induced by UVA exposure are described. This study was conducted with 13 individuals of skin type III and IV based on The Fitzpatrick skin classification. On day one, each subject's minimal persistent pigment darkening dose (MPPD) was determined on the lower back of each individual, in an area that is equal in color to the area that received test material application. […] Subjects returned to the clinic 34 hours after the MPPD exposures were complete. The test sites were scored for pigment darkening using the following scale: • - no visible pigment darkening • ? questionable response; unclear • + slight darkening over essentially the whole irradiation field • ++ definite darkening over the whole irradiation field The site treated with the lowest dose of UVA producing a score of ‘+’ represented that subject's MPPD. On day two, sites of uniform color were marked on the lower back. The clinical grader assessed the degree of tan at each site using a 0-10 scale (0=very slight tan and 10=very deep tanning.) Then the Test material (0.1% and 0.9% of BBI-AV) and the vehicle control applied under occlusion. A volume of 150 μl was dosed onto each patch. The occlusive patches used hte these experiments were the same as described in Example 2. As described in Example 2, the patches remained in place until the next day, when a clinician removed them. This patching procedure was repeated for 11 days. On the days 12-14, the clinician removed the patches that were applied the previous day and the site was gently wiped to remove residual test material. The clinical grader assessed the degree of tan at each site using a 0-10 scale (0=no tan and 10=very deep tanning.) After grading was complete, each site was exposed to 1.0 MPPD of UVA as described for Day 1. New patches were applied after exposures were completed. On day 15, patches were removed and the degree of tan at each site was assessed using a 0-10 scale (0=no tan and 10=very deep tanning). […] In this table, the tanning grade results are shown as the results obtained for day 12 subtracted from grades of days 13, 14 and 15.

[2] = system: skin of subjects with Fitzpatrick skin types III or IV; experiment: Skin lightening study, occlusive patches on lower back, clinical tanning grade; type: in vivo, human
Procedure: In this Example, experiments conducted to assess the skin lightening capabilities of BBI-AV are described. Thirteen subjects, ages 18-65, with Fitzpatrick skin types III or IV participated in this 22-day study. The Fitzpatrick skin classification is based on the skin's unprotected response to the first 30 to 45 minutes of sun exposure following a winter season without sun exposure. The categories of skin types are:
Five test sites of uniform color were marked on the lower back of each subject. The clinical grader assessed the degree of tan at each site using a 0-10 scale (0=very slight tan and 10=very deep tanning.). Each subject was pre-treated with one concentration of Molecule A, two concentrations of Molecule B, vehicle control buffer, and an untreated site for 11 consecutive days. Approximately 150 uL of test materials (0.1% and 0.9% of BBI-AV) and vehicle control were dosed onto the lower back using occlusive patches. Occlusive patches consisted of a Webril® (non-woven cotton) pad held to the skin with a porous, hypoallergenic tape (e.g., SCANPORE® or MICROPORE®). A strip of BLENDERM® tape equal in width of the cotton pad covered the outside of the tape to provide the occlusive patch. Patches remained in place until a clinician removed them the next day. This patching procedure was repeated for 11 days.
On day 12, the clinician removed the patches that were applied the previous day and the site was gently wiped to remove residual test material. The clinical grader assessed the degree of tan at each site using a […].

VegF = molecular target: T2, VegF (Homo sapiens, UniProt P15692); experiment: Electrochemiluminescence (BioVeris) competition with Anti-VegF antibody for binding to VegF; settings: ECL labeled Anti-VegF antibody, biotinylated VegF; for competition with Anti-VegF antibody for binding to VegF: 2 h room temperature
T2 construct: purchased PeproTech
T2 sequence (P15692 27-191 isoform P15692-4): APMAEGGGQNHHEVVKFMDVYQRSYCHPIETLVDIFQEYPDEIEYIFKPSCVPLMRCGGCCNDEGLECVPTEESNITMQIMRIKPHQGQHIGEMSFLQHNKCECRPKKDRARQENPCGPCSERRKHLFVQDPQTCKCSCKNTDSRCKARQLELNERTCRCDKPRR
Procedure: FIG. 19 provides a graph showing results from a competition analysis of 2BBlck81 versus anti-VegF antibody binding to VegF.
Briefly, after cleavage, the pH of the cleaved sample was adjusted to 5.5, the sample was then loaded onto the column (equilibrated with 25 mM MES pH 5.5). The free 2BBIck81 was washed through the column using 25 mM sodium acetate pH 5.0 while the BCE103 catalytic core remained bound to the resin. The 2BBIck81 fraction was concentrated by ultrafiltration and analyzed using an electrochemiluminescence (ECL) based binding assay (BioVeris). The Anti-VegF antibody (Santa Cruz) and VegF (PeproTech) were labeled with the electrochemiluminescent dye and biotin, respectively, as described by the manufacturer (BioVeris). All materials were in Dulbecco's PBS (Mediatech) supplemented with 0.1% TWEEN®-80. An initial dilution series of Anti-VegF antibody (125, 250 and 500 ng/ml) and VegF (100, 150, 200 and 250 ng/ml) were tested in the binding assay to determine the concentrations of each that would give a robust ECL signal.
For testing 2BBIck81 binding, 50 μL of 500 ng/ml ECL labeled Anti-VegF antibody, 50 μL of 250 ng/ml biotinylated VegF and 100 μL 2BBIck81 (series of 12.5, 15, 31.25, 62.5, 125, 250 or 500 ng/ml) were incubated at room temperature for 2 h with shaking. Then, 50 μL of 0.2 mg/ml streptavidin coated beads were added and the reaction was incubated at room temperature for 30 minutes. The ECL signal was measured using a BioVeris M8/384 Analyzer as described by the manufacturer (BioVeris).

- specific/selective binding to VEGF (Human VEGF165): binds specifically to VEGF
- specific/selective binding to VEGF (Human VEGF165; listed as BBI-VEGF): Selective binding affinity to VEGF
B1: BBI-VEGF1: BBI-VEGF fusion (SEQ ID NO:22) with only one of the binding loops replaced (protein)
chain: DDESSKPCCDQCACYNLYGWTCRCSDMRLNSCHSACKSCICALSYPAQCFCVDLTDFCEPCKPSEDDKEN
modifications: synthetic fusion peptide

B2: BBI-AV: BBI sequences having anti-VEGF (AV) sequences incorporated; primary active of the personal care compositions (protein)
chain: DDESSKPCCDQCACYNLYGWTCRCSDMRLNSCHSACKSCICALSYPAQCFCVDLTDFCEPCKPSEDDKEN
- Day 13 Avg. Tanning Grade ([1]; 0.1% BBI-AV): 5.08
- Day 14 Avg. Tanning Grade ([1]; 0.1% BBI-AV): 5.13
- Day 15 Avg. Tanning Grade ([1]; 0.1% BBI-AV): 5.5
- Change on Day 13 (tanning grade minus day 12 grade) ([1]; 0.1% BBI-AV): 0.32
- Change on Day 14 (tanning grade minus day 12 grade) ([1]; 0.1% BBI-AV): 0.37
- Change on Day 15 (tanning grade minus day 12 grade) ([1]; 0.1% BBI-AV): 0.74
- Day 12 Avg. Tanning Grade ([1]; 0.1% BBI-AV): 4.76
- UVA induced pigmentation ([1]; 0.1% and 0.9% of BBI-AV under occlusion, 1.0 MPPD of UVA on days 12-14): UVA induced pigmentation is decreased
- Day 13 Avg. Tanning Grade ([1]; 0.9% BBI-AV): 4.92
- Day 14 Avg. Tanning Grade ([1]; 0.9% BBI-AV): 5.04
- Day 15 Avg. Tanning Grade ([1]; 0.9% BBI-AV): 5.5
- Change on Day 13 (tanning grade minus day 12 grade) ([1]; 0.9% BBI-AV): 0.23
- Change on Day 14 (tanning grade minus day 12 grade) ([1]; 0.9% BBI-AV): 0.35
- Change on Day 15 (tanning grade minus day 12 grade) ([1]; 0.9% BBI-AV): 0.81
- Day 12 Avg. Tanning Grade ([1]; 0.9% BBI-AV): 4.69
- change in tanning grade versus vehicle control ([2]; 0.1% and 0.9% of BBI-AV, 150 uL under occlusive patches for 11 days, graded day 12): greater change in the tanning grade
- Change in Average Tanning Grade ([2]; 0.9% BBI-AV, Day 11 versus Day 1): −0.27
- Average Day 1 Tanning Grade ([2]; 0.9% BBI-AV, occlusive patch on lower back, baseline before treatment, clinical grader scale): 4.96
- Average Day 11 Tanning Grade ([2]; 0.9% BBI-AV, occlusive patches for 11 consecutive days, clinical grader scale): 4.69

B3: 1BBIck81: BBI with the grafted CK37281 peptide in the trypsin loop (protein)
chain: DDESSKPCCDQCACYNLYGWTCRCSDMRLNSCHSACKSCICALSYPAQCFCVDITDFCYEPCKPSEDDKEN
- competition with Anti-VegF antibody for binding to VegF (VegF): also competed with the Anti-VegF antibody

B4: 2BBIck81: BBI with the grafted CK37281 peptide in the chymotrypsin loop (protein)
chain: DDESSKPCCDQCACTKSNPPQCRCSDMRLNSCHSACKSCACYNLYGWTCFCVDITDFCYEPCKPSEDDKEN
- competition for VegF binding compared with synthesized CK37281 peptide (VegF): competed for VegF binding better than the synthesized CK37281 peptide itself
- competition with Anti-VegF antibody for binding to VegF (VegF): competed with the Anti-VegF antibody for binding to VegF at micromolar concentrations
